For assay [1] the following is noted: at best, in about 40% of patients (Dworkin, 2002); cited from earlier work.
The target of assay [2] is T1, human Nav1.7 channel (Homo sapiens, UniProt Q15858).
T1 construct: host or cells: HEK293
The assay can be described thus: PatchXpress h Nav1.7 assay (automated Patch Clamp, HEK cells). Format: cell-based. To be noted: for dose dependence of inhibition of human Nav1.7 currents: recombinant human Nav1.7 in HEK cells, repeated voltage step protocol, end point. How it is done:
Extracellular solution contained (in mM): 130 NaCl, 4 KCl, 1.5 CaCl2, 1 MgCl2, 30 glucose, 10 HEPES (pH 7.4 with Tris-Base, and 300 to 305 mOsmolar). Intracellular solution contained (in mM): 5 NaCl, 115 CsF, 20 CsCl, […], 10 EGTA free acid (pH 7.2 with CsOH, and 290 to 295 mOsmolar) and was either made fresh or kept frozen. Extracellular and intracellular solutions were filtered prior to use. Antibodies were directly diluted in extracellular solution and were freshly (no more than 15 min) prepared before transfer to a 96-well polypropylene compound plate (Sarsted, #83.1835.500). For the experiments using selective peptide, antibodies and peptides, at equal concentrations, were preincubated at least 30-min at 4° C. prior Patch Clamp experiments.
HEK293 cells stably expressing the human Nav1.7 channel (type IX voltage-gated sodium channel alpha subunit) were purchased from Upstate (Upstate, Millipore, cat.#CYL3011). Cells were cultured in T-75 (BD BioCoat™ Collagen I Cellware, Becton Dickinson Labware, Bedford, Mass., #356485) flasks coated with collagen type I using standard culture medium DMEM-F12 with-Glutamine (Invitrogen, #11320) containing 10% FBS (Lonza, #DE14-802F), 1% penicillin+streptomycin (Lonza, DE17-603E), 1% non essential amino acids (Lonza, BE13-114E) and 400 μg/ml G418 (GIBCO, #10131-027). Cells were plated at a density of 15,000 cells/cm2 or 8,000 cells/cm2 density for 2 or 3 days respectively before being used on PatchXpress® 7000A (Axon instrument, new part of MDS Analytical Technologies). Cells confluence never exceeded 90%. The day of the experiment, cells were harvested using Accumax (Sigma, A7089). Briefly, cells were washed twice in PBS (Lonza, #BE12-516F) without calcium and magnesium, and a 1:4 dilution of Accumax solution was added and incubated for 1.5 to 2-min at 37° C. DMEM-F12 with 15 mMHEPES and L-glutamine (Lonza, #BE12-719F) containing 10% FBS (recovery media) was added to quench Accumax digestion. The cells were subsequently centrifuged at 1,000 rpm for 5-min in 50 ml falcon tube and pellets are resuspended in 10 ml of recovery media. Cells are counted (CoulterZ2) and suspended at ˜0.1 million cells/ml and transferred to a 15 ml screw-cap tube for minimum 90 minutes at room temperature. Cells were then centrifuged for 60-s at 1,000 rpm. The pellet was gently resuspended in 1,000 μl extracellular solution and centrifuged a second time for 30-s at 1,000 rpm. Pellet was resuspended in 150 μL extracellular solution and immediately tested on the PatchXpress®. […]
After 10-s, the pressure was switched from +4 to −30 mmHg to attract suspended cells to each of the 16 holes (electrodes). […] The cell was allowed to dialyze for 5 min, during which the access resistance was monitored. […]
On the technique in general: The patch-clamp technique gives a direct electrical read-out from membranes.

For assay [3], the target named is T2, Nav 1.7 peptide B11.7 (Homo sapiens, UniProt Q15858).
T2 construct: host or cells: synthetic peptide captured on streptavidin plates
The assay can be described thus: Peptide binding ELISA, cyclic Nav 1.7 peptide B11.7. To be noted: biotinylated cyclic peptide on streptavidin plate. As for the experimental part:
(§1) Nunc 96 well plates were coated overnight at 4° C. in 5 ug/ml Streptavidin (Jackson 016-000-114) 100 ul/well in carbonate coating buffer. Plates were washed four times in PBS/tween and 200 ul/well of block (1% BSA in PBS) was added for 1 hour at RT. Plates were washed four times in PBS/tween and 100 ul/well of biotinylated peptide at 5 ug/ml was added for 1 hour at RT. Plates were washed four times in PBS/tween and 100 ul/well of antibody added (starting at 10 ug/ml diluting in block in half logs down the plate) for 1 hour at RT. Plates were washed four times in PBS/tween and […] goat anti rabbit Fc HRP (Jackson 111-036-046) added for 1 hour at RT. Plates were washed four times in PBS/tween and 100 ul/well TMB (3,3′,5,5′ Tetramethylbenzidine) solution added. 50 ul/well of NaF was added to stop reaction and absorbance read at 630 nm.
(In general: In an ELISA, binding on a coated surface is turned into a signal by an enzyme label.)

In assay [4] the target is T3, Mouse domain B loop E1 peptide B11 (Nav 1.7) (Mus musculus, UniProt Q62205).
T3 construct: host or cells: synthetic peptide
The assay can be described thus: Peptide binding ELISA, mouse B11 peptide. As for the experimental part: as §1

In assay [5] the target is T4, Human domain B loop E1 peptide B11 (Nav 1.7) (Homo sapiens, UniProt Q15858).
T4 construct: host or cells: synthetic peptide
The assay can be described thus: Peptide binding ELISA, human B11 peptide. How it is done:
as §1

Assay [6] concerns cultured rat dorsal root ganglion (DRG) neurons. As to the kind of experiment: Dorsal root ganglion in vitro current clamp electrophysiology. To be noted: 25 μg/ml; for number of evoked action potentials: compared with vehicle or control antibody, administration at time=2 minutes. The format is cell-based. How it is done: Dorsal Root Ganglia were isolated from 1-2 wild-type rat pups, aged between postnatal day 1 and 3. Ganglia were washed in PBS after dissection and immediately placed into a DMEM (Lonza, #BE12-604F) solution containing 2 mg/ml collagenase (Sigma-Aldrich, #C2674) and incubated at 37° C. for approximately 45 minutes for enzymatic digestion. Collagenase solution was removed and replaced with DMEM supplemented with 10% Fetal Bovine Serum (Lonza, #DE14802F), 0.5 mM L-Glutamine (Lonza, #BE17-605E), 1% Penicillin/Streptomycin (Lonza, #BE17-603E) and 20 ng/ml nerve growth factor (NGF, Invitrogen). Ganglia were then mechanically triturated, centrifuged at 1000 g for 5 minutes, and resuspended in the same culture medium. Dissociated cells were counted and diluted to a suspension of 100,000-120,000 cells/ml on glass coverslips precoated with 50 μg/ml poly-D-lysine (Sigma) and 30 μg/ml laminin (Invitrogen) and incubated at 37° C., 5% CO2 until ready for use.
Dissociated DRG were taken for use no more than two days in vitro (DIV) following preparation. Cells were visualized on an Olympus BX50WI upright microscope with an Ikegami ICD-42B CCD camera. […] All recordings were acquired using pClamp 10 software (Molecular Devices) and subsequently analyzed in Clampfit 10 (Molecular Devices). […] The liquid junction potential was calculated to be 14.2 mV, all reported voltages have been corrected to compensate.
After formation of a tight seal (>1 GΩ) by release of positive pressure and manual suction in voltage clamp mode, capacitative currents were compensated and the command voltage was set to −70 mV. […] Whole cell parameters were recorded after dialysis. […] The amplifier was switched to current clamp mode and the resting membrane potential was recorded. […]
Cells were subsequently treated either with control or antibody solutions by fast bath perfusion directly on to the recorded cell for 90 seconds to sufficiently fill the recording chamber, at which point both perfusion and aspiration were halted. […]

Assay [7] concerns the target T5, rat Nav1.7 channels (Rattus norvegicus, UniProt O08562).
T5 construct: expressed in transfected cells; host or cells: HEK cells
As to the kind of experiment: Automated Patch Clamp analysis of recombinant rat Nav1.7 channels expressed in HEK cells. Format: cell-based. As to conditions: recombinant rat Nav1.7 in HEK cells. The source says: Automated Patch Clamp analysis of recombinant rat Nav1.7 channels expressed in HEK cells. […] Data points represent the normalized peak current amplitudes after application of a repeated voltage step protocol (end point) in the presence of antibody.

Positions count from the first letter of the chain named.

T1 sequence (Q15858 whole entry): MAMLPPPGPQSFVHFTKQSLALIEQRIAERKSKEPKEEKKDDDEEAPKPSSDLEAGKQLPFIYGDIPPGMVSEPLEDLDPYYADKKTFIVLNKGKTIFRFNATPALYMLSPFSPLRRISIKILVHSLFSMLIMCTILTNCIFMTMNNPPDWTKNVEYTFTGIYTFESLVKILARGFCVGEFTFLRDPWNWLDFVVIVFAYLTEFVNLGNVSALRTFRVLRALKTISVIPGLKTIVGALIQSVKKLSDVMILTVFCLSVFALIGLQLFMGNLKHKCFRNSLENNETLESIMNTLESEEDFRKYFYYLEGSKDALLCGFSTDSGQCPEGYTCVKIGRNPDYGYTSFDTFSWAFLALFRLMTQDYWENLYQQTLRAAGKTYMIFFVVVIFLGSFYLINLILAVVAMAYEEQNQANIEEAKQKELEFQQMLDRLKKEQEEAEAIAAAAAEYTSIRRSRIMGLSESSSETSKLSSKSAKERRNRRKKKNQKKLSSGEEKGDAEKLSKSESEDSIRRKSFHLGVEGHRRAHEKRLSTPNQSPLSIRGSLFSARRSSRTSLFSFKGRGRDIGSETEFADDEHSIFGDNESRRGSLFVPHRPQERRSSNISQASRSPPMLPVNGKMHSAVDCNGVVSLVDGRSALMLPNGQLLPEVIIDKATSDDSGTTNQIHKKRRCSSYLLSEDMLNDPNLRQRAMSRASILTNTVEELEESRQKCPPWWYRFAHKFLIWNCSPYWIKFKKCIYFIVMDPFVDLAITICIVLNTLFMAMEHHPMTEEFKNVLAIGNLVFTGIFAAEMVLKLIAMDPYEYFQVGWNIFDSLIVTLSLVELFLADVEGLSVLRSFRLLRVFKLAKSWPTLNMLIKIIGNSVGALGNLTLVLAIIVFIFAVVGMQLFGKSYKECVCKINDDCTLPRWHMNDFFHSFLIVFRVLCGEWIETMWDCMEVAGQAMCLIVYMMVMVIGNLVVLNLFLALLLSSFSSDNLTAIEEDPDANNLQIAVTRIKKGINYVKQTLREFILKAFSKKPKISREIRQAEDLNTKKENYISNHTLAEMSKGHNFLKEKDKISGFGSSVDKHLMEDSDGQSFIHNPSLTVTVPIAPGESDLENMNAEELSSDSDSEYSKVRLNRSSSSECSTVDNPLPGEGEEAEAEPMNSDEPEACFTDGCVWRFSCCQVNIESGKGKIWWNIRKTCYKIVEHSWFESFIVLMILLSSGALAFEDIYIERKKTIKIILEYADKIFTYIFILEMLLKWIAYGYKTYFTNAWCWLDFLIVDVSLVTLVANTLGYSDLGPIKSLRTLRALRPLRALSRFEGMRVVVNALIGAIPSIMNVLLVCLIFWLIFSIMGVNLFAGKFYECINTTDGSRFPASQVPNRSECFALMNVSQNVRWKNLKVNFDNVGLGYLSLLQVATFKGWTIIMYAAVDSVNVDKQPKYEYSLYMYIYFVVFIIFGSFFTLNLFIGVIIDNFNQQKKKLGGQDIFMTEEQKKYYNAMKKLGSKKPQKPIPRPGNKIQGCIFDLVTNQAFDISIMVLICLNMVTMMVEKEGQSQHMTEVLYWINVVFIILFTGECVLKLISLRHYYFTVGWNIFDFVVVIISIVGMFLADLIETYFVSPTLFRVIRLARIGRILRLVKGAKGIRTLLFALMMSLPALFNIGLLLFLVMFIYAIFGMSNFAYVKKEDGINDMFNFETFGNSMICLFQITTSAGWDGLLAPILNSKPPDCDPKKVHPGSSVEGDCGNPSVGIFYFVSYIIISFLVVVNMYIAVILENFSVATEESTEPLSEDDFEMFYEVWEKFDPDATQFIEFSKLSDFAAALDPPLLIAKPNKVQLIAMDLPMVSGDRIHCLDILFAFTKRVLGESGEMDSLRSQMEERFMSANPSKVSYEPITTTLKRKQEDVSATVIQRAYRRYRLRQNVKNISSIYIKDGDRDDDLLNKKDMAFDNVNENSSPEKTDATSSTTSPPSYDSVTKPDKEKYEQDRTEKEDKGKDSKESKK
T5 sequence (O08562 whole entry): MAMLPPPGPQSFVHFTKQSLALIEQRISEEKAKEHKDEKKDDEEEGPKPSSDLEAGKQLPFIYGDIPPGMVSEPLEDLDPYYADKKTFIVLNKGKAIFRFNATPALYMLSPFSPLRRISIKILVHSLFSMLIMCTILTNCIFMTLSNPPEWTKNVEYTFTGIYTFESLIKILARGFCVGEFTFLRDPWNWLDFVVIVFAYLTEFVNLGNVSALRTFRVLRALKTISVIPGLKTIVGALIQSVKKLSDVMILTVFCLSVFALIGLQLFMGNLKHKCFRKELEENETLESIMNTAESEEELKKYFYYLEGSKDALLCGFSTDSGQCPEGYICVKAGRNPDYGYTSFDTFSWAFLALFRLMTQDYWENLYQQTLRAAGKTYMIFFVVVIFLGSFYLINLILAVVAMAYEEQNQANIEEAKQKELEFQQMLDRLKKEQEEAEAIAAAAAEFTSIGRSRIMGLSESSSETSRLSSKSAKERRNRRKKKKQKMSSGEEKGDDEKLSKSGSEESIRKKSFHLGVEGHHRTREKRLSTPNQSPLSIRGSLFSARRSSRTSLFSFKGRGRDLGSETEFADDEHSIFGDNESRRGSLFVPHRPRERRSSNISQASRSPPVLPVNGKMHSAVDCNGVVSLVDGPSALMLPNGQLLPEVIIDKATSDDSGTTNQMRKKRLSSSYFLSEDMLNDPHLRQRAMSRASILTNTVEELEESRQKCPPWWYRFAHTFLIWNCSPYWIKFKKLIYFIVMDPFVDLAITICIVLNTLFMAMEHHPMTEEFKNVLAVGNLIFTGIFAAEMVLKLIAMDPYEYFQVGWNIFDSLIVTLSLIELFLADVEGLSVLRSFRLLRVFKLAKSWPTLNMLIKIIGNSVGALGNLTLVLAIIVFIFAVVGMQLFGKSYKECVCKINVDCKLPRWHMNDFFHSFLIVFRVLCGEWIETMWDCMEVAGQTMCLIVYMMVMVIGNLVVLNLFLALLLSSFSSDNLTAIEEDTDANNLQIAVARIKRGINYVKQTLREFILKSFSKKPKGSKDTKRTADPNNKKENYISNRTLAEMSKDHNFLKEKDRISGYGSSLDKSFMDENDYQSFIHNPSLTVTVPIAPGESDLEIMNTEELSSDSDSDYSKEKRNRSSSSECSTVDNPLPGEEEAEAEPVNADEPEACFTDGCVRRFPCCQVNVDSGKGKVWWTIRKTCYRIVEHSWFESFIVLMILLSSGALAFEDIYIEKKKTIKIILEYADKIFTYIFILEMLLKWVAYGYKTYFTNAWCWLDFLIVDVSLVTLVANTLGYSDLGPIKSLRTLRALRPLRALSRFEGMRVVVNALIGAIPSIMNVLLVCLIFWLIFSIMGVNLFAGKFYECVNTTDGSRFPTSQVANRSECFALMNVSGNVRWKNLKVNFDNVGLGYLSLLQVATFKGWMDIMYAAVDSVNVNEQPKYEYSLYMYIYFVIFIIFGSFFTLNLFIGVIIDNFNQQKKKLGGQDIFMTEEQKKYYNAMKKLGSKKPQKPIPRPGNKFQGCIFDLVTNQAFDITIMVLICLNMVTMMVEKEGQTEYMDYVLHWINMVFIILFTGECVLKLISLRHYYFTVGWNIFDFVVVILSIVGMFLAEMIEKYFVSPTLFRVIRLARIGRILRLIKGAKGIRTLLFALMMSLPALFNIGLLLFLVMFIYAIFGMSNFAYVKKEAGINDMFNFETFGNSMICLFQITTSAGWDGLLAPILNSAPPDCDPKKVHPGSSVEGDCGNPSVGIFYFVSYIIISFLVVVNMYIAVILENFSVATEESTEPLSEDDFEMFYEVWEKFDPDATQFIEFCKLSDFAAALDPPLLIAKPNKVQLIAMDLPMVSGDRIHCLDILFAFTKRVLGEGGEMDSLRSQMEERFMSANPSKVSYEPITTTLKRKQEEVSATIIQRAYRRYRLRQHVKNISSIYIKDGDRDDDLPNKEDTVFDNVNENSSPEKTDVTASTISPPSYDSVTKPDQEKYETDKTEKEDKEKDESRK

In the case of `NCC1(CC(=O)O)CCCCC1` [gabapentin], the pain reduction in assay [1] is ≤ 50%.

B1: CA167_00983: rabbit anti-Nav1.7 monoclonal antibody, B11-specific; VH SEQ ID NO:148, VL SEQ ID NO:147 (antibody, V domains shown)
VH: QSVEESGGRLVTPGTPLTLTCTVSGFSLSNYAMSWVRQAPGKGLEWIGIIGKSGSTAYASWAKGRFTISRTSTTVDLEITSPTTEDTATYFCVRFVLLWGPGTLVTVS
VL: AQVLTQTASPVSAAVGGTVTINCQSSQSVYKNNDLAWYQQKPGQPPKLLIYYASTLASGVSSRFKGSGSGTEFTLTISDAQCDDAATYYCLGSYDCSSADCNAFGGGTKVVVK
modifications: derived from rabbit
Take B1: in assay [2] (25 μg/ml, stimulation only at end, after incubation of antibody), the “human Nav1.7 current when stimulated only at the end of the protocol” value was “does not produce an inhibition of the Nav1.7 current”. Also, in assay [2] (25 μg/ml, voltage step protocol at 0.1 Hz for ~20 minutes), the “human Nav1.7 currents under repeated activation” value is “reduced in the presence of the antibody (25 μg/ml) but only when repeated activation of the channel at 0.1 Hz is maintained”. For the same molecule, in assay [2], the “dose dependence of inhibition of human Nav1.7 currents” value was “dose-dependent inhibition”. Besides, in assay [3], the “ELISA binding to Nav 1.7 peptide (B11.7)” value is listed as “specific binding”. Further, the “ELISA binding to Mouse domain B loop E1 peptide B11” value in assay [4] was “binding”. The “ELISA binding to Human domain B loop E1 peptide B11” value in assay [5] is given as “binding”. Also, the “number of evoked action potentials” value in assay [6] is listed as “significantly reduced”. Moreover, the “dose dependence of inhibition of rat Nav1.7 currents” value in assay [7] (repeated voltage step protocol, end point) was “dose-dependent inhibition”.

B2: CA167_01080: rabbit anti-Nav1.7 monoclonal antibody, B11-specific; VH SEQ ID NO:176, VL SEQ ID NO:175 (antibody, V domains shown)
VH: QSLEESGGRLVTPETPLTLTCTASGIDLSKWPMTWVRQAPGKGLEWIGIIGRSGSTNYASWAKGRFTISKTSTTVDLKMTSPTTEDTATYFCARGGSYYDLWGQGTLVTVS
VL: B1 VL with G17N, N22T, Y30W, A36S, P42L, G66A, E72Q, A80V, A86G, L91V
modifications: derived from rabbit
As to B2, the “dose dependence of inhibition of human Nav1.7 currents” value in assay [2] is listed as “dose-dependent inhibition”. Besides, in assay [3], the “ELISA binding to Nav 1.7 peptide (B11.7)” value is recorded as “specific binding”. Also, the “ELISA binding to Mouse domain B loop E1 peptide B11” value in assay [4] was “binding”. Further, the “ELISA binding to Human domain B loop E1 peptide B11” value in assay [5] is given as “binding”. Besides, the “electrically induced spike frequency of DRG neurons” value in assay [6] (normalized to frequency at time 0) is given as “reduces”. In addition, the “inhibition of rat Nav1.7 currents” value in assay [7] (25 μg/ml) was ~26%.

B3: CA167_00932: rabbit anti-Nav1.7 monoclonal antibody, A32-specific; VH SEQ ID NO:140, VL SEQ ID NO:139 (antibody, V domains shown)
VH: QSLEESGGRLVTPGTPLTLTCTVSGFSLSRYWMSWVRQAPGKGLEWIGNIGGGSGSTLYAPWAKGRSTISKTSTTVDLKITSPTTEDTATYFCGRYVKNGGGYRLDLWGPGTLVTVS
VL: AAVLTQTPSSVSAAVGGTVTIKCQSSQSVYNNNEFSWYQQKPGQPPKLLIYDASKLASGVPSRFSGSGSGTQFTLTISGVQCDDVATYYCLGGYNDDTNRWAFGGGTEVVVE
modifications: derived from rabbit
As to B3, the “number of evoked action potentials” value in assay [6] was “significantly reduced”.

The values above are taken from US8986954B2, “DNA encoding function modifying Nav1.7 antibodies” (UCB Pharma S.A., priority 2009, dated 2015).
